Source: patent US20260193366A1 (APOGEE THERAPEUTICS, published 2026)

T1: hIL-4Rα on cells (human, UniProt P24394 26-825)
T1 sequence: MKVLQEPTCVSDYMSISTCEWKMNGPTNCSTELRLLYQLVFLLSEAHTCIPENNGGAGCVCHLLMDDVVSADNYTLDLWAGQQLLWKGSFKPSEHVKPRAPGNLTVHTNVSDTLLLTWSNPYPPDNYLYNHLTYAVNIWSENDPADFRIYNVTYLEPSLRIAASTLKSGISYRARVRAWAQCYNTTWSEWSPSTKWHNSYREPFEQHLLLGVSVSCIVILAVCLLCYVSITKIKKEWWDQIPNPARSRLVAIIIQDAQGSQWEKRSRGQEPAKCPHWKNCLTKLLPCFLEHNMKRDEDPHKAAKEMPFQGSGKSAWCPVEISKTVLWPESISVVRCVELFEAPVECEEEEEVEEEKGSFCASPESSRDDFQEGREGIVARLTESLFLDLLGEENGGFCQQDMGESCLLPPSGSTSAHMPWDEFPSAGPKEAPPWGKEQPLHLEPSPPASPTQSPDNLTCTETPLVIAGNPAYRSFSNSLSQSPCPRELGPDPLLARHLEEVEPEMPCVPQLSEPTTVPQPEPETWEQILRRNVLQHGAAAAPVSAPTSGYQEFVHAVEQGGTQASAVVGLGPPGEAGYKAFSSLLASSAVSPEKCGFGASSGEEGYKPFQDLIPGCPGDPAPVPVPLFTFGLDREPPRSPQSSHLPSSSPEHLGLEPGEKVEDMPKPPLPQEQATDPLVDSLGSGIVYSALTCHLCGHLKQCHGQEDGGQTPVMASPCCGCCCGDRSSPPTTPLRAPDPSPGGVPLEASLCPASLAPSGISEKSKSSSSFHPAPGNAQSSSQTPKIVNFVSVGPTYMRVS

T2: human IL-4Rα (human, UniProt P24394 26-232)
T2 construct: also called Hu IL-4Rα; hIL-4Rα
T2 sequence: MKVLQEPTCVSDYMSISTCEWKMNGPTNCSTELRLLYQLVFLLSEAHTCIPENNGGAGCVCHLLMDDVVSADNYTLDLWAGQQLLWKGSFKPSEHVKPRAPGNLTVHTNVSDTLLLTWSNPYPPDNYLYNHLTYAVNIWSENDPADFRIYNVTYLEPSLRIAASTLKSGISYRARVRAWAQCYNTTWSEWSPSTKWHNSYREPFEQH

T3: cynomolgus monkey IL-4Rα (cynomolgus monkey, UniProt P24394 26-231 (human entry), limits assumed)
T3 construct: also called Cyno IL-4Rα; cyIL-4Rα
T3 chain: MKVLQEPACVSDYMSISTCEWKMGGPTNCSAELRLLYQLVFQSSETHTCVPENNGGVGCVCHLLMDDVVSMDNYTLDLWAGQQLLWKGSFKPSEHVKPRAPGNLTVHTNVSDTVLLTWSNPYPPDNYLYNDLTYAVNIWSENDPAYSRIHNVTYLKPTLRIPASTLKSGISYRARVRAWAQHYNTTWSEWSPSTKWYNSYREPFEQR


Tests used:
hIL-4Rα on cells [1] = molecular target: T1, hIL-4Rα on cells; assay: cell-based or functional assay
human IL-4Rα = molecular target: T2, human IL-4Rα; assay: SPR, Carterra LSA;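 further: antibodies captured on an anti-human Fc sensor chip, antigen injected at several concentrations, association and dissociation rates fitted with a 1:1 Langmuir model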
cynomolgus monkey IL-4Rα = molecular target: T3, cynomolgus monkey IL-4Rα; assay: SPR, Carterra LSA;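 further: antibodies captured on an anti-human Fc sensor chip, antigen injected at several concentrations, association and dissociation rates fitted with a 1:1 Langmuir model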
hIL-4Rα on cells [2] = molecular target: T1, hIL-4Rα on cells; assay: FACS on HEK293 cells, competitor biotin-hIL-4;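 further: HEK293 cells stably co-expressing hIL-13Rα and hIL-4Rα, stained for 1 h at 4 °C, read-out as mean fluorescence intensity by flow cytometry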
hIL-4Rα on cells [3] = molecular target: T1, hIL-4Rα on cells; assay: cell-based or functional assay; remark: listed apart in the source
hIL-4Rα on cells [4] = molecular target: T1, hIL-4Rα on cells; assay: cell-based or functional assay; remark: listed apart in the source
hIL-4Rα on cells [5] = molecular target: T1, hIL-4Rα on cells; assay: FACS on HEK293 cells, competitor biotin-hIL-13;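 further: stably transduced cells co-expressing both receptor chains, stained cold, with cell-bound signal read as mean fluorescence intensity by flow cytometry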

Row | Binder | Relative Inhibition of IL-4 induced TF-1 Proliferation IC50 (hIL-4Rα on cells [1]) | Relative Inhibition of IL-13 induced TF-1 Proliferation IC50 (hIL-4Rα on cells [1]) | KD Relative to Dupilumab (human IL-4Rα) | Kd (human IL-4Rα) | KD Relative to Dupilumab (cynomolgus monkey IL-4Rα) | Kd (cynomolgus monkey IL-4Rα) | Relative Blockade of IL-4 Binding IC50 (hIL-4Rα on cells [2]) | Relative Inhibition of IL-4 induced TARC IC50 (hIL-4Rα on cells [3]) | Relative Inhibition of IL-13 induced TARC IC50 (hIL-4Rα on cells [3]) | Relative Inhibition of IL-4 induced pSTAT6 IC50 (hIL-4Rα on cells [4]) | Relative Inhibition of IL-13 induced pSTAT6 IC50 (hIL-4Rα on cells [4]) | Relative Blockade of IL-13 Binding IC50 (hIL-4Rα on cells [5])
1 | Construct 29 (mAb437) (antibody, IgG4, V domains shown, VH/VL only) VH: EVQLVESGGGLEQPGGSLRLSCAGSGFTFRDFAMTWVRQAPGKGLEWVSSISGSGGNIYYADSVKGRFTISRDNSKNTLYLQMNSLRAEDTAVYYCAKDRLSVTVRPRYYGLDVWGQGTTVTVSS VL: DIVMTQSPLSLPVTPGEPASISCTSSQSLLYSIGYNYVDWYLQKSGQSPQLLIYLGNKRASGVPDRFSGSGSGTDFTLKISRVEAEDVGFYYCMQSLTSPYTFGQGTKLEIK | 0.486 relative to dupilumab | 0.851 relative to dupilumab | 0.72 | 0.0081 nM | 0.02 | 15.7 nM | 0.887 relative to dupilumab | 0.693 relative to dupilumab | 1.39 relative to dupilumab | 0.63 relative to dupilumab | 0.624 relative to dupilumab | 0.695 relative to dupilumab
2 | Construct 6 (mAb415) (antibody, IgG4, V domains shown, VH/VL only) VH: EVQLVESGGGLEQPGGSLRLSCAGSGFTFRDFAMTWVRQAPGKGLEWVSSISGSGDNIYYADSVKGRFTISRDNSKNTLYLQMNSLRAEDTAVYYCAKDRLSVTVRPRYYGLDVWGQGTTVTVSS VL: DIVMTQSPLSLPVTPGEPASISCRSSQGLLYSIGYNYVDWYLQKSGQSPQLLIYLGNKRASGVPDRFSGSGSGTDFTLKISRVEAEDVGFYYCMQSLQTPYTFGQGTKLEIK | 0.92 relative to dupilumab | 2.06 relative to dupilumab | 1.02 | 0.0115 nM | 0.09 | 59.5 nM | 1.16 relative to dupilumab | 0.879 relative to dupilumab | 1.44 relative to dupilumab | 0.729 relative to dupilumab | 1.35 relative to dupilumab | 0.99 relative to dupilumab
3 | Construct 2 (mAb411) (antibody, IgG4, V domains shown, VH/VL only) VH: EVQLVESGGGLEQPGGSLRLSCAGSGFTFRDFAMTWVRQAPGKGLEWVSSISGSGGNIYYADSVKGRFTISRDNSKNTLYLQMNSLRAEDTAVYYCAKDRLSKTIRPRYYGLDVWGQGTTVTVSS VL: DIVMTQSPLSLPVTPGEPASISCTASQSLLYSIGYNYVDWYLQKSGQSPQLLIYLGSKRASGVPDRFSGSGSGTDFTLKISRVEAEDVGFYYCMQALTTPYTFGQGTKLEIK | 0.376 relative to dupilumab | 0.87 relative to dupilumab | 1.61 | 0.0181 nM | 0.1 | 64.2 nM | 0.799 relative to dupilumab | 0.267 relative to dupilumab | 0.314 relative to dupilumab | 0.507 relative to dupilumab | 0.685 relative to dupilumab | 0.942 relative to dupilumab
4 | Construct 5 (mAb414) (antibody, IgG4, V domains shown, VH/VL only) VH: EVQLVESGGGLEQPGGSLRLSCAGSGFTFRDFAMTWVRQAPGKGLEWVSSISGSGDNIYYADSVKGRFTISRDNSKNTLYLQMNSLRAEDTAVYYCAKDRVSITIRPRYYGLDVWGQGTTVTVSS VL: DIVMTQSPLSLPVTPGEPASISCRSSQSLLYSIGKNYVDWYLQKSGQSPQLLIYLGNKRASGVPDRFSGSGSGTDFTLKISRVEAEDVGFYYCMQSLQTPYVFGQGTKLEIK | 0.521 relative to dupilumab | 0.94 relative to dupilumab | 2.1 | 0.0238 nM | 0.18 | 116 nM | 1.01 relative to dupilumab | 0.552 relative to dupilumab | 0.897 relative to dupilumab | 0.78 relative to dupilumab | 1.07 relative to dupilumab | 1 relative to dupilumab
5 | Construct 3 (mAb412) (antibody, IgG4, V domains shown, VH/VL only) VH: EVQLVESGGGLEQPGGSLRLSCAGSGFTFRDFAMTWVRQAPGKGLEWVSSISGSGSSTYYADSVKGRFTISRDNSKNTLYLQMNSLRAEDTAVYYCAKDRLSITVRPRYYGLDVWGQGTTVTVSS VL: DIVMTQSPLSLPVTPGEPASISCRSSQSLLYSIGYNYVDWYLQKSGQSPQLLIYLGNKRASGVPDRFSGSGSGTDFTLKISRVEAEDVGFYYCMQALTTPYTFGQGTKLEIK | 0.514 relative to dupilumab | 0.683 relative to dupilumab | 0.76 | 0.00856 nM | 0.14 | 85.4 nM | 0.877 relative to dupilumab | 0.521 relative to dupilumab | 0.506 relative to dupilumab | 0.767 relative to dupilumab | 0.66 relative to dupilumab | 0.949 relative to dupilumab
6 | Construct 1 (mAb410) (antibody, IgG4, V domains shown, VH/VL only) VH: EVQLVESGGGLEQPGGSLRLSCAGSGFTFRDFAMTWVRQAPGKGLEWVSSISGSGGNIYYADSVKGRFTISRDNSKNTLYLQMNSLRAEDTAVYYCAKDRLSKTIRPRYYGLDVWGQGTTVTVSS VL: DIVMTQSPLSLPVTPGEPASISCRSSQSVLYSIGYNYVDWYLQKSGQSPQLLIYLGSKRASGVPDRFSGSGSGTDFTLKISRVEAEDVGFYYCMQSLDTPYTFGQGTKLEIK | 0.414 relative to dupilumab | 1.37 relative to dupilumab | 1.25 | 0.0141 nM | 0.17 | 107 nM | 1.1 relative to dupilumab | 0.427 relative to dupilumab | 0.485 relative to dupilumab | 0.592 relative to dupilumab | 0.671 relative to dupilumab | 0.968 relative to dupilumab
7 | Construct 4 (mAb413) (antibody, IgG4, V domains shown, VH/VL only) VH: EVQLVESGGGLEQPGGSLRLSCAGSGFTFRDFAMTWVRQAPGKGLEWVSSISGSGGNIYYADSVKGRFTISRDNSKNTLYLQMNSLRAEDTAVYYCAKDRLSKTIRPRYYGLDVWGQGTTVTVSS VL: DIVMTQSPLSLPVTPGEPASISCTASQSLLYSIGYNYVDWYLQKSGQSPQLLIYLGNNRATGVPDRFSGSGSGTDFTLKISRVEAEDVGFYYCMQALTTPYTFGQGTKLEIK | 0.442 relative to dupilumab | 1.11 relative to dupilumab | 1.24 | 0.014 nM | 0.2 | 128 nM | 1.01 relative to dupilumab | 0.266 relative to dupilumab | 0.614 relative to dupilumab | 0.493 relative to dupilumab | 0.862 relative to dupilumab | 0.989 relative to dupilumab
